Biological target: CENP-ΔQU complex (CENP-Q^1–294 and CENP-U^30–266) (S. cerevisiae, UniProt P53298 1-294; P38313 30-266)
Test: ITC

## Ac-AGDQQSINDRALSLLQRTRATKNW-NH2 [CENP-A^END-2 peptide]
  Kd: 0.66 µM

## Ac-AGDQQSINDAALSLLQRTRATKNW-NH2 [CENP-A^END-2-R37A peptide]
  Kd: 9.67 µM

From publication PMC10381965 (2022)
